From publication PMC8514465, “Functional and structural analysis of catabolite control protein C that responds to citrate” (Scientific Reports, 2021)

Tests used:
[1] = target: T1, BaCcpC-FL (Bacillus velezensis, UniProt A7Z428); assay: EMSA with biotin-labelled citB promoter DNA; format: binding; settings: 40 μM protein, 800 nM citB promoter DNA, 0-70 μM citrate, 30 min, room temperature; inducer
T1 construct: gene RBAM_013910; full length, residues 1-293; N-terminal His tag removed by TEV; E. coli BL21(DE3); dimer (~60 kDa) by SEC-MALS
T1 sequence (A7Z428 1-293): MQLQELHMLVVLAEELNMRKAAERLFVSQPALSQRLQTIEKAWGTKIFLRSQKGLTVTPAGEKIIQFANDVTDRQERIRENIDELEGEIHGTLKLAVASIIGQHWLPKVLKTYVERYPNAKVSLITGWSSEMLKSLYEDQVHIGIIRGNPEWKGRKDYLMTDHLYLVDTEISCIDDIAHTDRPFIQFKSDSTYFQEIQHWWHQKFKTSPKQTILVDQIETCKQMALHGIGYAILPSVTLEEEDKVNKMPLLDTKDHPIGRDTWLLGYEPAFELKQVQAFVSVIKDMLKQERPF

[2] = target: the molecule itself; assay: SEC-MALS; BaCcpC-FL not incubated with citrate; Superdex 200 Increase 10/300 GL, 295 K, 20 mM Tris pH 8.0, 150 mM NaCl, 2 mM 2-mercaptoethanol
[3] = target: the molecule itself; assay: crystal structure; BaCcpC-IBD with citrate, 2.3 Å, space group C2, SAD phasing; crystals from PEG 6000, MPD, 0.1 M HEPES pH 7.5, 287 K

Molecule: O=C(O)CC(O)(CC(=O)O)C(=O)O [citrate]
- EMSA with biotin-labelled citB promoter DNA [1]: the presence of citrate slightly suppressed the binding of CcpC to citB-P

B1: full-length catabolite control protein C from Bacillus amyloliquefaciens (natural protein, UniProt A0A9P1JGF9 1-293, looked up)
chain: MQLQELHMLVVLAEELNMRKAAERLFVSQPALSQRLQTIEKAWGTKIFLRSQKGLTVTPAGEKIIQFANDVTDRQERIRENIDELEGEIHGTLKLAVASIIGQHWLPKVLKTYVERYPNAKVSLITGWSSEMLKSLYEDQVHIGIIRGNPEWKGRKDYLMTDHLYLVDTEISCIDDIAHTDRPFIQFKSDSTYFQEIQHWWHQKFKTSPKQTILVDQIETCKQMALHGIGYAILPSVTLEEEDKVNKMPLLDAKDHPIGRDTWLLGYEPAFELKQVQAFVSVVKDMLKQERPF
notes: Catabolite control protein C (CcpC), LysR-type transcriptional regulator, Bacillus amyloliquefaciens, residues 1-293, amplified from genomic DNA; PDB 7DMW holds only residues 88-293; also called BaCcpC-FL; BaCcpC; source: E. coli BL21 (DE3), purified (Ni-NTA, TEV cleavage, HiTrap-Q, Superdex 200); not shown: His6, N-terminal, cleaved
- stoichiometry N [2]: 2

B2: C-terminal inducer-binding domain of Bacillus amyloliquefaciens CcpC (domain or fragment, UniProt A0A9P1JGF9 88-293, looked up)
chain: EIHGTLKLAVASIIGQHWLPKVLKTYVERYPNAKVSLITGWSSEMLKSLYEDQVHIGIIRGNPEWKGRKDYLMTDHLYLVDTEISCIDDIAHTDRPFIQFKSDSTYFQEIQHWWHQKFKTSPKQTILVDQIETCKQMALHGIGYAILPSVTLEEEDKVNKMPLLDAKDHPIGRDTWLLGYEPAFELKQVQAFVSVVKDMLKQERPF
modifications: selenomethionine-substituted (Se-Met protein used for SAD phasing)
notes: Crystallised in complex with citrate; five molecules in the asymmetric unit; Cloned into pPROEX-HTA; also called BaCcpC-IBD; CcpC-IBD; source: E. coli BL21 (DE3), purified (Ni-NTA, TEV cleavage, HiTrap-Q, Superdex 200) with 10 mM sodium citrate throughout; not shown: His6, N-terminal, cleaved
- binding result [3]: binds
